Like-named read-outs stand apart in the source and are kept apart here.
Tests used:
[1] = target: Brucella abortus RicA (Rab2 interacting conserved protein A), His6-RicA (1-175) (Brucella abortus); test: ITC
[2] = target: Brucella abortus RicA (Rab2 interacting conserved protein A), His6-RicA (1-175) (Brucella abortus); test: ITC; remark: listed apart in the source

Homo sapiens Rab2 (1-212) (from UniProt P61019 1-212) (natural protein)
Kd [1]: 40 µM | Kd [2]: 36 µM

From paper PMC3902126
